For 1 molecule, IC50 results are on record in patent US6967092 (dated 2005).

In this assay the target is T1, human G-CSF receptor transfected in BaF3 cells (human, UniProt Q99062 25-836).
T1 construct: whole, on cells; also called hG-CSF receptor; BaF3/hG-CSF
Nature of the assay: competition with an agonist-specific radioligand, BaF3 cells transfected with the G-CSF receptor.

B1: G-CSF (ligand)
chain: not shown
A word on the IC50: it is the concentration that inhibits the measured activity by half. In the case of B1, the IC50 came out at 0.69 nM.
